Source: US20220315554A1, “COMPOUNDS COMPRISING A […] LIGAND AND USE THEREOF” (priority 2019, published 2022)
Bridge positions count the residues as written; N and C are the ends. * marks the point of attachment. tMeBn(DOTA-AET) = Cys-Cys bridge (thioethers) carrying DOTA-AET; tMeBn(DOTA-PP) = Cys-Cys bridge (thioethers) carrying DOTA-PP; Hexanoyl = CCCCCC(=O)*

T1: D1 (h) (human (printed (h))), P21728
T1 chain: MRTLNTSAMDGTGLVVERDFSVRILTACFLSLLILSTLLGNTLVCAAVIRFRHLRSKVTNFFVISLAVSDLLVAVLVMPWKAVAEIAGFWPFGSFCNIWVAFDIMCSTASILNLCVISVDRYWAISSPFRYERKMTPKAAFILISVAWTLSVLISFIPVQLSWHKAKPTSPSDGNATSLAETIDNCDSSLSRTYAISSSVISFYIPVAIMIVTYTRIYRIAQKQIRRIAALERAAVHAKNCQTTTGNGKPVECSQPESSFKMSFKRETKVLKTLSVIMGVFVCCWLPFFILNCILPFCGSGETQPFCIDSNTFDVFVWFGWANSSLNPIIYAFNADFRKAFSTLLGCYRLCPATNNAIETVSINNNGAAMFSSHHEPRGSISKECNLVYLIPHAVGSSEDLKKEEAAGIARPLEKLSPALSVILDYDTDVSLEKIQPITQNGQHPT

T2: D2S (h) (human (printed (h))), P14416
T2 chain: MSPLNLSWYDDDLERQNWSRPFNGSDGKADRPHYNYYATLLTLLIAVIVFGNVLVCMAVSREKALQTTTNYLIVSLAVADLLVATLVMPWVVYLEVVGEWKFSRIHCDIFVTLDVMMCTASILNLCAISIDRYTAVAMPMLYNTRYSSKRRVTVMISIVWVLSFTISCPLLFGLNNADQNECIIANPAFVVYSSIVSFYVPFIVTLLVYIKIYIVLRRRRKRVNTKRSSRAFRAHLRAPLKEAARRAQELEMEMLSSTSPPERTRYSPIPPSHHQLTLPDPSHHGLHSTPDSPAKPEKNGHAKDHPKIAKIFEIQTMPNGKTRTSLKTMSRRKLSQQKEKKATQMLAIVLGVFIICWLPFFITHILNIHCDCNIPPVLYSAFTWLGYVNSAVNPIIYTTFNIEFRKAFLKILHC

T3: GR (h) (human (printed (h))), P04150
T3 chain: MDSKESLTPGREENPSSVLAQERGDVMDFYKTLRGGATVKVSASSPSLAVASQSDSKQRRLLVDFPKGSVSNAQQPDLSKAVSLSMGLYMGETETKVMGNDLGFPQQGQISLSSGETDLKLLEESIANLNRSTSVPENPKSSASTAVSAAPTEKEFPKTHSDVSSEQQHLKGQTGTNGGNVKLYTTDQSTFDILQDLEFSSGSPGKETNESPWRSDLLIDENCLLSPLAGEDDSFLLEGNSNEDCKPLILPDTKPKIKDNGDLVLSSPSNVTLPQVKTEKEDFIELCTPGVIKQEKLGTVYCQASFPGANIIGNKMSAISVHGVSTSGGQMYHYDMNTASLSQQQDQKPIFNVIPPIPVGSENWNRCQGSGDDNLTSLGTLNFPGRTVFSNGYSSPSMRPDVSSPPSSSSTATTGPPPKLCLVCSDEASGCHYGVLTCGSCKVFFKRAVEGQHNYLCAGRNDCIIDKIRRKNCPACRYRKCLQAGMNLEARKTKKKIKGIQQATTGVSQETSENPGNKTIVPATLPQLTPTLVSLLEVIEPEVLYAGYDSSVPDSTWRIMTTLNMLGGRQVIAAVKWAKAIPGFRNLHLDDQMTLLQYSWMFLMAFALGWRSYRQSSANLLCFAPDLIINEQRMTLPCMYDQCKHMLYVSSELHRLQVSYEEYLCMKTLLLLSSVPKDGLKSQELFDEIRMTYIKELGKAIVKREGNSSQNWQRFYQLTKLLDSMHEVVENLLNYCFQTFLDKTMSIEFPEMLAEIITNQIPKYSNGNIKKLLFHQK

T4: dopamine transporter (h) (human (printed (h))), Q01959
T4 chain: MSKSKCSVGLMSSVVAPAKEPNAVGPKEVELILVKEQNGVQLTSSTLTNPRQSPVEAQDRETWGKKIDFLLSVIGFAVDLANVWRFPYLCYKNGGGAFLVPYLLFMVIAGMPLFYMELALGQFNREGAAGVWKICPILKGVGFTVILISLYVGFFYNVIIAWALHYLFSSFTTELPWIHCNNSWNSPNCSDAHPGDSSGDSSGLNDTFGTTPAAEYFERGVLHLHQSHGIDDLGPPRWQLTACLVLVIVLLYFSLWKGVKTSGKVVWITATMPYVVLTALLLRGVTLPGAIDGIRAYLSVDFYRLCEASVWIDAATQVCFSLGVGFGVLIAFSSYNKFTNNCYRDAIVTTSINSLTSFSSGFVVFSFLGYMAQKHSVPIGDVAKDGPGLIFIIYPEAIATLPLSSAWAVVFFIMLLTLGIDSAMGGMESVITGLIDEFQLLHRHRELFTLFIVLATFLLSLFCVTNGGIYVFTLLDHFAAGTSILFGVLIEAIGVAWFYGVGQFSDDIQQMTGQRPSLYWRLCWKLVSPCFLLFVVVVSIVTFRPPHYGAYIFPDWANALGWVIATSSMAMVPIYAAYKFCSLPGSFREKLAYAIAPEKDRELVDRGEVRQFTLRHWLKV


How the values were obtained:
Assay in all cases: radioligand displacement, 10 uM compound
Conditions in all cases: remark: other sources report otherwise
[1] = target: CB2 (h) (human (printed (h))), P34972
CB2 (h) (human (printed (h))), P34972, sequence (P34972 whole entry): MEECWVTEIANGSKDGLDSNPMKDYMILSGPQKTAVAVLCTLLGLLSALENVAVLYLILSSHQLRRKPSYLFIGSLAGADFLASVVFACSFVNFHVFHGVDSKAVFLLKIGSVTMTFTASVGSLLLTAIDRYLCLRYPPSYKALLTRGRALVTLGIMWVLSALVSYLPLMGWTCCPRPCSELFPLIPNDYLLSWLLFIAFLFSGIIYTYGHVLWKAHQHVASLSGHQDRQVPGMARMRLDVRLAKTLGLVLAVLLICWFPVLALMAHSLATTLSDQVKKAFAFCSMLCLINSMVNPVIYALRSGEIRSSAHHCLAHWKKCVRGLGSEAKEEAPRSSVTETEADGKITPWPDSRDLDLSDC

[2] = target: T1, D1 (h) (human (printed (h))), P21728
[3] = target: T2, D2S (h) (human (printed (h))), P14416
[4] = target: T3, GR (h) (human (printed (h))), P04150
[5] = target: beta 2 (h) (human (printed (h))), P07550
[6] = target: T4, dopamine transporter (h) (human …)
[7] = target: mu (MOP) (h) (human), P35372
mu (MOP) (h) (human), P35372, sequence (P35372 whole entry): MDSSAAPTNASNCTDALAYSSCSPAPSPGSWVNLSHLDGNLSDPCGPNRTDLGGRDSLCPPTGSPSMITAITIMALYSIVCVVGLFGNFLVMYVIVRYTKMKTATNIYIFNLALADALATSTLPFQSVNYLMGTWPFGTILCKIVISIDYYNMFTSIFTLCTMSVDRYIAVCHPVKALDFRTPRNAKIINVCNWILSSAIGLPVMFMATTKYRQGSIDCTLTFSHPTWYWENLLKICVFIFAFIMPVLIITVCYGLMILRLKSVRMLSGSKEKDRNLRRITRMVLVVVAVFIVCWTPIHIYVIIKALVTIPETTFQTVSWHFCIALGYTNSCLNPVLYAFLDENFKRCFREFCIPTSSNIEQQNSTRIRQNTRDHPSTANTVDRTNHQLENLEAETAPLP

% Inhibition of Specific Binding [1] [%] | % Inhibition of Specific Binding [2] [%] | % Inhibition of Specific Binding [3] [%] | % Inhibition of Specific Binding [4] [%] | % Inhibition of Specific Binding [5] [%] | % Inhibition of Specific Binding [6] [%] | % Inhibition of Specific Binding [7] [%] | Binder
2 | 0 | 15 | -2 | 4 | 12 | 2 | Hexanoyl-CPPTQFCD-NH2 (linker 1-7 via tMeBn(DOTA-PP)) [Hex-[Cys(tMeBn(DOTA-PP))-Pro-Pro-Thr-Gln-Phe-Cys]-Asp-NH2 (3BP-3407)]
-5 | 7 | -7 | 0 | 8 | 7 | -10 | Hexanoyl-CPPTQFC-OH (linker 1-7 via tMeBn(DOTA-AET)) [Hex-[Cys(tMeBn(DOTA-AET))-Pro-Pro-Thr-Gln-Phe-Cys]-OH (3BP-3554)]
